Source: patent publication US20240218079A1, “PLASMA KALLIKREIN ANTIBODIES AND USES THEREOF” (Astria Therapeutics, Inc., priority 2021, published 2024)
Each block holds one molecule with its values, some of them ahead of it.

What was measured:
pkal (1 nM enzyme) = biological target: T1, pkal (1 nM enzyme) (Homo sapiens, UniProt P03952); assay: Inhibition of pkal enzymatic activity in a fluorogenic peptide substrate assay (screening); assay type: biochemical
T1 construct: active human plasma kallikrein (pkal, Enzyme Research Labs, South Bend, IN); purchased Enzyme Research Labs, South Bend, IN
T1 sequence (P03952 391-638 limits assumed): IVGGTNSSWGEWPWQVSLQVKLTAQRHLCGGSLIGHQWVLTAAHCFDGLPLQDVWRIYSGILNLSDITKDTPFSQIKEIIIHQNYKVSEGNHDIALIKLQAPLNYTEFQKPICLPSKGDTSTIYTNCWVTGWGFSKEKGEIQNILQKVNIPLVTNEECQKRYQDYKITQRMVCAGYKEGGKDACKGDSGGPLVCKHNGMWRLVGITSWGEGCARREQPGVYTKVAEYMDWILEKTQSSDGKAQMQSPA
T1 sequence (P03952 20-390 limits assumed): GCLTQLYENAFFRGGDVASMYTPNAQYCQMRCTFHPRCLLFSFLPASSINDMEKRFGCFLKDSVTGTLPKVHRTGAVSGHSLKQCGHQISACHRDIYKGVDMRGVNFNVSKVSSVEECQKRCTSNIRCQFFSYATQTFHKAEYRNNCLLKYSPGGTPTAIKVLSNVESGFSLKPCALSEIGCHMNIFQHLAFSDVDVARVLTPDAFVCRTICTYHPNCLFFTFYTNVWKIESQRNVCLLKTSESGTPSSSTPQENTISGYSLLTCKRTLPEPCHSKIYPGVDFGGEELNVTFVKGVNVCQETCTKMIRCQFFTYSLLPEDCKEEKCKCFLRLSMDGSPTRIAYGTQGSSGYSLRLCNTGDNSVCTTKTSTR
Experimental: (§1) Monoclonal IgGs were retested for pkal and prekal binding by ELISA, and were screened for inhibition of pkal (1 nM enzyme) enzymatic activity in a fluorogenic peptide substrate assay (Kenniston et al. J Biol Chem. 2014 Aug. 22; 289(34):23596-608). […] This hybridoma was sequenced to determine heavy and light chain variable domains (SEQ ID NO: 1 and SEQ ID NO: 2; MAb1). […] The nucleic acid sequence of the heavy chain variable domain of MAb1 is provided as SEQ ID NO: 33 and the nucleic acid sequence of the light chain variable domain of MAb1 is provided as SEQ ID NO: 34.

human pkal and prekal = assay: ELISA for binding to human pkal and prekal; settings: monoclonal IgG from hybridoma
Experimental: Five prekallikrein (prekal) knock-out mice were immunized via the hock route with active human plasma kallikrein (pkal, Enzyme Research Labs, South Bend, IN). When serum titers indicated a robust immune response, draining lymph nodes were harvested, and lymphocytes were fused with a myeloma line using electrofusion. Resulting hybridomas were plated in thirty 384-well plates, and screening by ELISA for binding to human pkal and prekal. Hybridoma lines with preferential binding to pkal were subcloned and expanded.
as §1

plasma kallikrein (pkal) = biological target: T2, plasma kallikrein (pkal) (Homo sapiens, UniProt P03952); assay: HMWK cleavage functional assay (bradykinin release measured by ELISA); assay type: biochemical; settings: inhibition of HMWK cleavage by pkal
T2 construct: active human plasma kallikrein (pkal, Enzyme Research Labs, South Bend, IN); purchased Enzyme Research Labs
T2 sequence (P03952 20-390 limits assumed): as above
T2 sequence (P03952 391-638 limits assumed): as the sequence (P03952 391-638 limits assumed) above
Experimental: Specifically, the ability of each antibody to inhibit pkal cleavage of its natural substrate, High Molecular Weight Kininogen (HMWK) was observed. In these experiments 10 or 30 nM pkal was preincubated with inhibitory antibodies for 1 hr at RT, then 600 nM HMWK was added and incubated for 20 minutes and the reaction was quenched by adding 0.5 μM AEBSF. The concentration of bradykinin (BK) released from HMWK as catalyzed by pKal was measured using 1/100 dilution of the reaction product in a commercial ELISA kit (Enzo, Farmingdale, NY).
The HMWK assay parameters were physiologically relevant as the concentration of high molecular weight kininogen used is the concentration that circulates in humans and the concentration of plasma kallikrein used is in the range of what has been estimated in plasma from patients with hereditary angioedema (HAE) during an attack.
The IC90 values for the antibodies were also determined to provide an index of relative potency. In HAE, the therapeutically relevant level of inhibition to prevent HAE attacks is thought to be approximately 90% inhibition of plasma kallikrein. This corresponds to a measurement referred to as IC90, which is the concentration of an agent that results in 90% inhibitory effect.

human FcRn = biological target: T3, human FcRn (Homo sapiens, UniProt P55899); assay: hFcRn binding by SPR (Biacore T200)
T3 construct: purchased Sino Biological CT009-H08H
Experimental: IgG1 was used as a control antibody. The antibody samples were assessed for FcRn binding via SPR using a Biacore T200. The Biacore chip was a CMS coupled with human FcRn (Sino Biological, Cat. No. CT009-H08H). Running buffer used was PBS 0.05% P20 and pH 6 or pH 7.4.

human plasma kallikrein = biological target: T4, human plasma kallikrein (Homo sapiens, UniProt P03952); assay: SPR binding to human plasma kallikrein; settings: pH 7.4, 37° C.
T4 construct: active human plasma kallikrein (pkal, Enzyme Research Labs, South Bend, IN); purchased Enzyme Research Labs
T4 sequence (P03952 20-390 limits assumed): as the sequence (P03952 20-390 limits assumed) above
T4 sequence (P03952 391-638 limits assumed): as the sequence (P03952 391-638 limits assumed) above
Experimental: Kinetic properties and selectivity of lead pkal antibodies were examined by SPR at 37° C. and either pH 7.4 or pH 6.0.

[1] = Cynomolgus pharmacokinetic studies; assay type: in vivo, cynomolgus monkey; settings: male cynomolgus, IV infusion 5 mg/kg
Experimental: These studies of these antibodies were conducted concurrently, but were independent studies rather than a head-to-head comparison. Cynomolgus monkeys, LM-naïve or naive, 3.0-4.0 kg, male, N=18, were purchased from Hainan Jingang Biotech Co. LTD. The antibodies were prepared in 20 mM Histidine, 150 mM NaCl, 0.01% Tween 80, pH 6.5. In these studies, all antibodies were administered to male cynomolgus monkeys (N=3) via IV infusion over 10 min at 5 mg/kg. Blood was collected from cephalic and saphenous veins into pre-cooled citrate acid tubes at each time point. […] Blood samples were put on wet ice and centrifuged at 4° C. to obtain plasma within 15 minutes of sample collection. Plasma samples were stored at approximately −70 C. Presence of each anti-plasma kallikrein antibody in the plasma samples was determined via ELISA using a plate coated with anti-human antibody as the capture agent and human IgG-heavy and light chain monkey-adsorbed antibody as the detection reagent (Southern Biotech, Cat #: 2049-01 and Bethyl, Cat #A80-319P). ELISA plates were read using a SpectraMax M2.

trypsin, human pancrease = assay: Trypsin inhibition assay; assay type: biochemical; settings: dilution series starting at 1 μM
Experimental: Fluorescence intensity was measured every 5 minutes. Gabexate mesylate was used as a positive control, in a dilution series starting at 1 μM. The assay was performed in duplicate.

B1: MAb2: optimally humanized variant VH5_VL4; VH SEQ ID NO: 3, VL SEQ ID NO: 4 (antibody, V domains shown)
VH: QVQLVQSGAEVKKPGSSVKVSCKASGYAFSSYWMNWVRQAPGQGLEWIGQIYPGDDDTNYNGKFQGRVTITVDKSTTTAYMELSSLRSEDTAVYFCAGSLMVTTGAPFDYWGQGTTVTVSS
VL: DIQMTQSPSSLSASVGDRVTITCKASQDVGIAVAWYQQKPGKAPKFLIYWASTRHTGVPDRFSGSGSGTDFTLTISSLQPEDFATYFCQQYRSYPLTFGQGTKLEIK
inhibition of pkal enzymatic activity (in words) (pkal (1 nM enzyme)): maintained both binding affinity and inhibitory potency

inhibition of pkal enzymatic activity (in words) (pkal (1 nM enzyme)): maintained selectivity and activity
B2: MAb3: humanized, liability fixed VH SEQ ID NO: 5 with CDR2-optimized VL SEQ ID NO: 6 (antibody, V domains shown)
VH: QVQLVQSGAEVKKPGSSVKVSCKASGYAFSSYWMNWVRQAPGQGLEWIGQIYPGDDDTNYNAKFQGRVTITVDKSTTTAYMELSSLRSEDTAVYFCAGSLMVTTGAPFDYWGQGTTVTVSS
VL: DIQMTQSPSSLSASVGDRVTITCKASQDVGIAVAWYQQKPGKAPKFLIYYASHRGWGVPDRFSGSGSGTDFTLTISSLQPEDFATYFCQQYRSYPLTFGQGTKLEIK

selectivity for pkal over prekal by ELISA (human pkal and prekal): selective for pkal
inhibition of pkal enzymatic activity (in words) (pkal (1 nM enzyme)): inhibitory
B3: MAb1: murine hybridoma lineage 24L13 anti-plasma kallikrein antibody; VH SEQ ID NO: 1, VL SEQ ID NO: 2 (antibody, V domains shown)
VH: QVQLQQSGAELVKPGASVKISCKASGYAFSSYWMNWVKQRPGEGLEWIGQIYPGDDDTNYNGKFKGKATLTVDKSSTTAYMQLSSLTSEDSAVYFCAGSLMVTTGAPFDYWGQGTTLTVSS
VL: DIVMTQSHKFMSTSVGDRVSITCKASQDVGIAVAWYQQKPGQSPKFLIYWASTRHTGVPDRFTGSGSGTDFTLTIRNVQSEDLSDYFCQQYRSYPLTFGSGTKLELK

Hill slope (plasma kallikrein (pkal)): ~2
hFcRn Binding Ka (human FcRn; pH 6.0): 184000 M⁻¹ s⁻¹
hFcRn Binding Kd (human FcRn; pH 6.0): 0.0277 s⁻¹
hFcRn binding at pH 7.4 (human FcRn; pH 7.4, data not shown): no evidence of binding
Ka (human plasma kallikrein): 69000 M⁻¹ s⁻¹
Kd (human plasma kallikrein): 7.3e-05 s⁻¹
B4: MAb4-YTE: MAb4 with M252Y, S254T, T256E; heavy chain SEQ ID NO: 10, light chain SEQ ID NO: 8 (antibody)
heavy: QVQLVQSGAEVKKPGSSVKVSCKASGYAFSSYWMNWVRQAPGQGLEWIGQIYPGDDDTNYNAKFQGRVTITVDKSTTTAYMELSSLRSEDTAVYFCAGSLMVTTGAPFDYWGQGTTVTVSSASTKGPSVFPLAPSSKSTSGGTAALGCLVKDYFPEPVTVSWNSGALTSGVHTFPAVLQSSGLYSLSSVVTVPSSSLGTQTYICNVNHKPSNTKVDKRVEPKSCDKTHTCPPCPAPELLGGPSVFLFPPKPKDTLYITREPEVTCVVVDVSHEDPEVKFNWYVDGVEVHNAKTKPREEQYNSTYRVVSVLTVLHQDWLNGKEYKCKVSNKALPAPIEKTISKAKGQPREPQVYTLPPSREEMTKNQVSLTCLVKGFYPSDIAVEWESNGQPENNYKTTPPVLDSDGSFFLYSKLTVDKSRWQQGNVFSCSVMHEALHNHYTQKSLSLSPG
light: DIQMTQSPSSLSASVGDRVTITCKASQDVGIAVAWYQQKPGKAPKFLIYYASHRGWGVPDRFSGSGSGTDFTLTISSLQPEDFATYFCQQYRSYPLTFGQGTKLEIKRTVAAPSVFIFPPSDEQLKSGTASVVCLLNNFYPREAKVQWKVDNALQSGNSQESVTEQDSKDSTYSLSSTLTLSKADYEKHKVYACEVTHQGLSSPVTKSFNRGEC
CI (mL/day/kg) (Mean ± SD) [1]: 1.44 ± 0.33 mL/day/kg
T ½ (days) (Mean ± SD) [1]: 33.6 ± 8.3 days
Vss (mL/kg) (Mean ± SD) [1]: 66.8 ± 6.1 mL/kg
terminal half-life [1]: approximately 34 days
inhibition of trypsin activity (trypsin, human pancrease): did not inhibit trypsin activity
